These results are taken from the RNAGym collection of RNA variant scans (doi:10.7554/elife.90254).

B1: LINE1-full (parent)
chain: UACGUAGGUGGUUUUCCCCUGAUAGUGCUAAGGGGGCCUGGAAGUUUGGACUGGGCAGAGCUCAACACAGCGUGGCAAAGUGGCUGUGGCUAGACUGCCUCUCUGGAUUCCUCGUCACUCAGCAGGGCAUCUCUGAGAGAAAUGCC

The variants in the series derive from B1. Briefly: self-cleavage, relative activity (ratio to wild type); higher = more cleavage; in vitro, sequencing; the parent is a self-cleaving ribozyme.
As to U15A C113U, the self-cleavage came to 0.44.
Under U15A A78G stands 0.99; under U15A A69U, 0.05; under C18U U73A, 1.78.
Under C18U U73C stands 1.53.
Under U15C U104C stands 1.86.
Regarding U15C U104A, the self-cleavage turned out to be 1.05.
As to U15C C51A, the self-cleavage is 1.37.
Take C17U A138C: the self-cleavage is 1.12.
Under U15C A117U stands 1.58; under C18U C113U, 0.75; under U15A A136U, 0.35.
To C18U U81C belongs 0.84.
Under U15C C66U stands 0.04; under U15A A57G, 0.68.
As to U15C U23C, the self-cleavage turned out to be 0.94.
Under C16U U39C stands 1.35; under C18A A94G, 0.22; under U15A G48C, 0.71.
To C17G U143C belongs 1.09.
Under C17A A42G stands 1.13.
As for U15C C133A, the self-cleavage is 1.27.
Regarding U15C C133U, the self-cleavage turned out to be 1.51.
Under U15G A94U stands 0.58; under C18A G88U, 0.12.
Under C17U U104A stands 0.95; under U15A U39G, 1.02; under U15C A59U, 0.94.
To U15C A59G belongs 0.1; to U15A G53U, 0.72; to C18U U115C, 1.49.
For the variant C18A G34A, the self-cleavage was 1.01.
Under C16U A121U stands 1.36; under U15C G35A, 1.41.
Consider U15C G35U, for which the self-cleavage was 1.55.
To U15C A79U belongs 1.88; to U15C G32C, 1.16; to U15C G32A, 0.93.
Under C18A U73C stands 1.23; under C16A U96C, 0.04; under C16A U96G, 0.08.
Under U15A G135A stands 0.87; under U15A U91C, 0.44.
In the case of C16A G32A, the self-cleavage came out at 0.77.
Under U15G A69G stands 0.95; under C17U U23G, 1.11; under C17U U23C, 0.68.
Under C18A C123U stands 1.31.
As for U15C A64G, the self-cleavage was found to be 0.36.
Take U15C A64C: the self-cleavage stood at 0.64.
To U15G belongs 1.06; to U15A, 0.96; to U15C, 1.42.
For the variant C16A A22U, the self-cleavage came to 1.21.
To C18U G139U belongs 1.11; to U15C U100C, 1.81; to U15C A140U, 1.61.
In the case of U15A U132C, the self-cleavage came out at 0.98.
Take C16U A64G: the self-cleavage worked out at 0.09.
Under U15A U47C stands 0.9; under U15A A117G, 1.24.
Under C16U U87A stands 0.05.
Take C18U A124U: the self-cleavage was determined as 1.27.
For U15A U26C, the self-cleavage amounted to 0.86.
Under U15C C76A stands 1.2; under U15A A30G, 1.16; under C17U U20G, 0.57.
Under C16U A142G stands 0.96.
As to U15C A22G, the self-cleavage amounted to 1.24.
As to U15C U130G, the self-cleavage came to 1.49.
To U15C U130A belongs 1; to C18U U143C, 1.11.
Under C16U A124U stands 0.88; under C16U G32A, 1; under U15G G144A, 0.82.
For the variant C17A A79U, the self-cleavage turned out to be 0.87.
As to C16U U132A, the self-cleavage was 1.41.
Under C18U A129U stands 0.56; under U15A U115C, 1.09; under C17A, 1.27.
Under C17G stands 0.91; under C17U, 1.09; under C18A A57G, 1.29.
Under C17U U96C stands 0.1.
With C19A U91C, the self-cleavage is 0.46.
For U15C A30U, the self-cleavage turned out to be 0.5.
For the variant C16U A129U, the self-cleavage amounted to 1.36.
Under C16U A129G stands 1.25; under U15A A42G, 1.31.
To U15C C61U belongs 0.05.
To C18A A129G belongs 1.42; to U15C U109A, 1.41; to U15C U109C, 1.43.
As to U15C U109G, the self-cleavage worked out at 0.84.
To U15A C146U belongs 0.88.
With U15C G114A, the self-cleavage was 0.71.
To U15C G114C belongs 1.59.
Under U15A U112A stands 1.53; under U15A U112C, 1.51; under C17A U132A, 1.17.
With U15C A69U, the self-cleavage came to 0.09.
On to C18U A24G, for which the self-cleavage amounted to 1.01.
Turning to C18U A67G, the self-cleavage turned out to be 0.44.
Under U15C G75A stands 1.28.
For C16A A121U, the self-cleavage amounted to 1.97.
Under U15G C118U stands 0.97; under U15C A138U, 1.86; under U15C A138G, 1.49.
To U15C A138C belongs 1.59; to C17U G72A, 1.05; to U15A U143A, 1.09.
To U15C G122U belongs 1.16.
As to U15C G122A, the self-cleavage amounted to 1.66.
Under U15C A129G stands 1.54.
Under C16U U100C stands 1.02; under C16A C38U, 1.45.
Under C16U U52C stands 1.47; under U15A A79G, 0.
Consider C19A U46C, for which the self-cleavage was 1.22.
To C16U U119A belongs 1.17.
To C16U U112C belongs 1.71; to U15C U102C, 1.46; to C17U U143G, 1.43.
To U15C A92U belongs 0.79; to U15A G32A, 0.66.
Turning to U15G A129G, the self-cleavage was 0.61.
Under U15C G137U stands 1.26.
For the variant U15A A77U, the self-cleavage was found to be 0.98.
To U15A A77G belongs 0.89.
To C19A A69G belongs 0.42; to U15C C128U, 1.1; to U15G G114A, 0.87.
Take U15A U119C: the self-cleavage was 0.19.
To U15C U73G belongs 1.18.
Under C18U A142G stands 1.27; under C19A U134C, 0.67; under U15C G33A, 1.05.
Under C18A A77U stands 0.97; under C18A U115G, 0.99; under U15C C17G, 1.13.
As for U15C C17U, the self-cleavage stood at 1.03.
As for C16U C131U, the self-cleavage turned out to be 1.8.
Regarding U15C G36C, the self-cleavage was 1.31.
Under U15C C98U stands 0.33.
Under U15C A141U stands 1.58.
Under C18U U87A stands 0.08; under C17U C131A, 1.58.
With C17U U29C, the self-cleavage is 0.81.
To C17A A59U belongs 0.69.
Under U15A G72A stands 0.92; under C16U U108A, 1.14.
To U15A G60U belongs 0.07.
In the case of U15C A124U, the self-cleavage amounted to 1.32.
To U15C A124C belongs 0.86; to U15C A124G, 1.39; to U15A A142G, 1.13.
To U15C C113U belongs 1.71.
Under U15C G44A stands 1.41; under C17U A141G, 0.
Regarding C18A A69C, the self-cleavage worked out at 0.13.
To C19A U102C belongs 1.76.
Under U15A U62C stands 0.
Under U15C A136U stands 1.41; under U15C A65U, 0.2.
As to U15A U87G, the self-cleavage was 0.2.
Under C17U U26C stands 0.6; under U15C A77U, 1.39.
